Source: patent US20260042834A1, “ANTI-CORTICOTROPIN-RELEASING HORMONE ANTIBODIES AND POLYCYSTIC OVARY SYNDROME” (HBM ALPHA THERAPEUTICS, INC., priority 2022, published 2026)
Changes are numbered by the printed parent chain. Where two headings read alike, the source gives them in different places. Blank lines part the entries; values can stand above or below the molecule they belong to.

Columns and labels:
mouse CRHR2 = experiment: CRH-induced luciferase reporter blocking assay, CHO-CRE-mCRHR2 cells; assay type: cell-based; conditions: CHO-CRE-mCRHR2 cells, 5 nM CRH
In short: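 CHO-CRE cells stably expressing mouse CRHR2 were seeded overnight, then given serially diluted antibodies (8 points, 1:4) together with CRH at 5 nM final. After 4–6 h at 37 °C, CRE-driven luciferase was read by Bio-Glo luminescence.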

[1] = test system: constitutively high plasma ACTH in Mrap1 KO mice; experiment: Mrap1 KO mice constitutively high ACTH model; assay type: in vivo, mouse; conditions: 20 mg/kg and 5 mg/kg, day 2 and day 16
Protocol: 8-10 week old wildtype female C57BL/6 mice were obtained from Charles River Laboratories. Mrap1 KO mice were obtained from Queen Mary University of London, UK. SSR125543A, a small molecule CRHR1 antagonist, was obtained from Axon Medchem (Cat #Axon 1799). Mouse Corticosterone (55-Corms-E01) and adrenocorticotropic hormone (ACTH) ELISA kits (21-ACTHU-E01) were obtained from ALPCO, USA. All procedures were carried out in accordance with the Guide for the Care and Use of Laboratory Animals of the National Institutes of Health. Protocols were approved by Charles River Laboratories Institutional Animal Care and Use Committee (IACUC).
To generate Mrap1 KO mice, Mrap1−/− male mice were bred with Mrap1+/− female mice. Corticosterone hormone replacement was performed by administering 50 μg/ml in drinking water to breeder cages when female mice were pregnant and their pregnancies palpable (approximately embryonic day 10). Drinking water was changed weekly, and treatment was stopped at weaning. Mice were uniquely identified with ear tags at the time of tail clipping to match future genotype with each mouse. DNA was extracted from tail tissue and used to genotype mice.
[…] On day 2 or 3, 14 and 28, 200 μl of blood was collected in EDTA tubes from the submandibular vein of each mouse. Plasma was separated using a refrigerated centrifuge (4° C. at 500×g for 10 min) and snap-frozen in dry ice for subsequent ACTH ELISA measurement.

human CRHR2 = experiment: CRH-induced luciferase reporter blocking assay, CHO-CRE-hCRHR2 cells; assay type: cell-based; conditions: CHO-CRE-hCRHR2 cells, 0.1 nM CRH
In short: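 CHO-CRE reporter cells stably expressing mouse or human CRHR2 were treated with serially diluted antibodies (8 points, 1:4) plus CRH at final 5 nM (mCRHR2) or 0.1 nM (hCRHR2), 4-6 hours at 37° C. CRE-driven luciferase read by luminescence after 10 min with detection reagent.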

[2] = biological target: T1, N-terminal region plus central region, central region only, central region plus C-terminal region of CRH (Homo sapiens, UniProt P06850); experiment: ELISA determining the binding region of CRH; conditions: dash = no binding
T1 construct: N-terminal region plus the central region (CT biotin), the central region only (NT biotin or CT biotin)
Protocol: Streptavidin (Thermo, Cat: 21125) was diluted in PBS to a concentration of 2 μg/ml. 100 μl of diluted streptavidin was added per well to ELISA microplates, and the plates were incubated overnight at 4° C. Plates were blocked with ELISA blocking solution (containing 2% w/v BSA, 0.05% (v/v) Tween-20, pH 7.4 PBS buffer) at 37° C. for 1 hour, and then incubated with 1 μg/mL N-terminal region plus the central region (CT biotin), the central region only (NT biotin or CT biotin), or the central region plus C-terminal region (NT biotin) of CRH for 1 hour at 37° C. Plates were then washed and incubated with diluted anti-CRH antibody (Ab) at 15 μg/ml (100 nM, 10 diluted, 8 points) for 1 hour at 37° C. Subsequently, plates were washed and incubated with HRP-conjugated goat anti-human IgG (H+L) antibody (Jackson, Cat: 109-035-088) at 37° C. for 1 hour. 100 μL of 3,3′,5,5′-tetramethylbenzidine (TMB) substrate (Biopanda, Cat: TMB-S-003) was added, and the plates were incubated at room temperature for 15 minutes. 100 μL of ELISA stopping solution (Solarbio, Cat #: C1058) was added to terminate the reaction, and the optical density at 450 nm (OD450 nm) was determined by an ELISA plate reader (Molecular Devices, Spectra max 384 plus).

biotinylated CRH = biological target: T2, biotinylated CRH (Homo sapiens, UniProt P06850); experiment: Affinity determination with Octet; assay type: binding
T2 construct: purchased GL Biochem 784751
T2 sequence (P06850 154-194): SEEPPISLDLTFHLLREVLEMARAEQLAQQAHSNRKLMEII
Protocol: Octet® Red 96e was used for affinity measurement. Octet® running buffer was prepared by diluting kinetics buffer 10× (Fortebio, Cat #18-1105) in PBS according to the manufacturer's instructions. Two columns of SA sensors (Fortebio, Cat #18-5019) were hydrated in running buffer for 10 mins, one for ligand capturing and the other for reference. Antibodies were 2-fold diluted and added into a 96-well plate. 30 nM biotinylated CRH (GL Biochem, Cat #784751) was captured by the first column of SA sensors for 20 seconds, while reference sensors were dipped into buffer wells. After a 60-second baseline step, sensors were dipped into analyte and buffer wells successively, with the association and dissociation time of 180 seconds and 800 seconds, respectively. Sensors were regenerated in glycine pH1.5 (Cytiva, Cat #BR-1003-54) before the next cycle. […] Signals of reference wells and reference sensors were subtracted by selecting “Double reference” before data fitting.

[3] = test system: human CRHR1 (hUCN1-induced); experiment: Human UCN1-induced luciferase reporter assay, CHO-CRE-hCRHR1 cells; assay type: cell-based; conditions: Table 10; 1 nM hUCN1
Protocol: CHO-CRE-hCRHR1 and CHO-CRE-hCRHR2 cells were harvested with trypsin-EDTA (Life Technologies, Cat #:12604-013). Cells were centrifuged at 1,000 rpm for 5 min and resuspended in growth medium. Cells were counted using a cell counter, seeded at 5,000 cells per 100 μl to 96-well flat plates, and incubated overnight. 50 μl of 4× serially diluted antibody (8 points, 1/3 diluted by growth medium) or CP 376395 hydrochloride (TOCRIS, Cat #:3212) (8 points, 1/10 diluted by growth medium) was added to plates, followed by 50 μl 4×hUCN1 (4× is 4 nM, final is 1 nM) to CHO-CRE-hCRHR1 cells or CHO-CRE-hCRHR2 cells. Plates were then incubated for 4-6 hours at 37° C. in a CO2 incubator. Following this, 60 μl of culture medium was removed, to which was added 60 μl of Bio-Glo luciferase, followed by incubation for 10 min at RT. Plates were then read in a luciferase plate reader (EnVision, PerkinElmer).

[4] = central plus C-terminal region CRH peptide, NT-biotin (SEQ ID NO: 483), read-out: ELISA EC50 C-Ter-CRH (NT-Bion)
[5] = central region CRH peptide, CT-biotin (SEQ ID NO: 485), read-out: ELISA EC50 Central-CRH (CT-Bion)
[6] = central region CRH peptide, NT-biotin (SEQ ID NO: 484), read-out: ELISA EC50 Central-CRH (NT-Bion)

B1: PR302038: humanized variant of Series 5 mAb PR301777; VH SEQ ID NO: 256, VL SEQ ID NO: 311 (antibody, V domains shown)
VH: EMQLVESGGGLVQPGGSLRLSCAASGFTFSNYWMNWVRQAPGKGLEWVAEIRLKSNNYATHYAESVKGRFTISRDDSKSSVYLQMNSLKTEDTAVYYCTVGTLVYWGQGTLVTVSS
VL: EIVLTQSPATLSLSPGERATLSCRASQSVSTSTYNYMHWFQQKPGQAPRLLIKFASNLESGIPARFSGSGSGTDFTLTISSLEPEDTAVYYCQHSWEIPYTFGQGTKLEIK
modifications: PR302036 VH, PR302038 VH, PR302041 VH; PR302031 VL, PR302038 VL, PR302045 VL, PR302052 VL, PR302066 VL
IC50 (mouse CRHR2): 6.17 nM | plasma ACTH concentrations in Mrap1 KO mice, dose dependence [1]: reduced plasma ACTH concentrations in Mrap1 KO mice, in a dose dependent manner | IC50 (human CRHR2): 5.96 nM

B2: PR302309-8: humanized variant of Series 7 mAb PR302309; VH SEQ ID NO: 261, VL SEQ ID NO: 318 (antibody, V domains shown)
VH: QIQLVQSGSELKKPGASVKVSCKASGYTFTNYGMNWVRQAPGQGLEWMGWINTYTGEPIYTDDFKGRFVFSLDTSVSTAYLQISSLKAEDTAVYYCSRSTMITTGGVFAYWGQGTLVTVSS
VL: DVVMTQSPLSLPVTLGQPASISCRSSQTIVHSDGNTYLEWYQQRPGQSPRLLIYKVSNRFSGVPDRFSGSGSGTDFTLKISRVEAEDLGVYYCFQGSHVPWTFGGGTKVEIK
modifications: PR302309-10 VH, PR302309-11 VH, PR302309-12 VH, PR302309-14 VH,PR302309-7 VH, PR302309-8 VH, PR302309-9 VH; PR302309-17 VL, PR302309-18 VL, PR302309-19 VL, PR302309-2 VL,PR302309-8 VL
EC50 [2, 4]: > 100 nM | EC50 [2, 5]: > 100 nM | EC50 [2, 6]: > 100 nM | kdis (biotinylated CRH): 0.000136 s⁻¹ | kon (biotinylated CRH): 266000 M⁻¹ s⁻¹ | CHO-CRE-hCRHR1 1 nM hUCH1 IC50 [3]: No Inhibition

Further lines, results first:

EC50 [2, 4]: > 100 nM | EC50 [2, 5]: > 100 nM | EC50 [2, 6]: > 100 nM | kon (biotinylated CRH): 154000 M⁻¹ s⁻¹ | CHO-CRE-hCRHR1 1 nM hUCH1 IC50 [3]: No Inhibition
B3: PR302309-11: humanized variant of Series 7 mAb PR302309; VH SEQ ID NO: 261, VL SEQ ID NO: 315 (antibody, V domains shown)
VH: B2 VH
VL: B2 VL with V2I, S7T, L11S, Y41L, S48P, S72A, L88V
modifications: PR302309-10 VH, PR302309-11 VH, PR302309-12 VH, PR302309-14 VH,PR302309-7 VH, PR302309-8 VH, PR302309-9 VH; PR302309-11 VL, PR302309-5 VL

EC50 [2, 4]: > 100 nM | EC50 [2, 5]: > 100 nM | EC50 [2, 6]: > 100 nM | kdis (biotinylated CRH): <1e-07 s⁻¹ | kon (biotinylated CRH): 126000 M⁻¹ s⁻¹
B4: PR302309-18: humanized variant of Series 7 mAb PR302309; VH SEQ ID NO: 263, VL SEQ ID NO: 318 (antibody, V domains shown)
VH: QVQLVQSGAEVKKPGASVKVSCKASGYTFTNYGMNWVRQAPGQRLEWMGWINTYTGEPIYTDDFKGRVTITRDTSASTAYMELSSLRSEDTAVYYCARSTMITTGGVFAYWGQGTLVTVSS
VL: B2 VL
modifications: PR302309-15 VH, PR302309-18 VH; PR302309-17 VL, PR302309-18 VL, PR302309-19 VL, PR302309-2 VL,PR302309-8 VL
